Test results taken from patent publication US20140087995A1 (published 2014).
One block for each binder: values may come before it. Numbered stars: 1 amine (or outer) side, 2 acyl side, 3 side chain; on linkers, the order of the positions; unused ones are H or OH. Bridge positions count the residues as written; N and C are the ends. Side chains are listed from the residue outwards. Ends that are not written are not given here. * marks the point of attachment. C20 diacid = O=C(O)CCCCCCCCCCCCCCCCCCC(=O)*; C18 diacid = O=C(O)CCCCCCCCCCCCCCCCC(=O)*; C16 diacid = O=C(O)CCCCCCCCCCCCCCC(=O)*; γGlu = O=C(O)[C@H](CCC(=O)[*:2])N[*:1]; C14 diacid = O=C(O)CCCCCCCCCCCCC(=O)*; AEEA = NCCOCCOCC(=O)O

Columns and labels:
[1] = molecular target: T1, human calcitonin receptor (human, UniProt P30988 25-474); experiment: cell-based or functional assay
T1 sequence (looked up): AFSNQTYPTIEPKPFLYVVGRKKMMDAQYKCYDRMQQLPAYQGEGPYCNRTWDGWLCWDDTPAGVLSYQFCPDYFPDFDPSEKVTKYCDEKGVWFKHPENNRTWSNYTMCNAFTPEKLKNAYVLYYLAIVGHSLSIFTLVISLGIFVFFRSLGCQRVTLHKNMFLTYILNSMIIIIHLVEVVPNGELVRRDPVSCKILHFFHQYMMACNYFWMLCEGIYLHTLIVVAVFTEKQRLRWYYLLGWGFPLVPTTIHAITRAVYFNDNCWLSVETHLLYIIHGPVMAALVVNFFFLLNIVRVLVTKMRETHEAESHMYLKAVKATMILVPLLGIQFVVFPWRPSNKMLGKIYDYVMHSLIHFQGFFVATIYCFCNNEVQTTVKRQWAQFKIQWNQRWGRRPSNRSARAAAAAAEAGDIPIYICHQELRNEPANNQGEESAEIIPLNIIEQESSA

[2] = molecular target: T2, human amylin 3(a) receptor (human calcitonin receptor co-expressed with RAMP-3) (human, UniProt P30988 25-474; O60896 24-148, limits assumed); experiment: cell-based or functional assay
T2 sequence (looked up) 1: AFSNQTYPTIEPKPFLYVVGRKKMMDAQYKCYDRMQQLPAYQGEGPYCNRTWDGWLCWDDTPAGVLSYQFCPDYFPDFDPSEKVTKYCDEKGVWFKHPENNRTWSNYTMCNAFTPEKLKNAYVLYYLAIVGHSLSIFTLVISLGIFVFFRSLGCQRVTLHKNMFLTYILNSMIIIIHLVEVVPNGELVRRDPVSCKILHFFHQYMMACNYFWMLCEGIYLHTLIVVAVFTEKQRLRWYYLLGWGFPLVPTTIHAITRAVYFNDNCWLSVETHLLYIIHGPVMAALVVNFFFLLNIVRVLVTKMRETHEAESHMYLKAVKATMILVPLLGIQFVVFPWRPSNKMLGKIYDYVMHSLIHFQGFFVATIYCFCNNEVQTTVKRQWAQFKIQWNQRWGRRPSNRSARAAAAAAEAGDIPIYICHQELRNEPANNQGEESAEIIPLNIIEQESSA
T2 sequence (looked up) 2: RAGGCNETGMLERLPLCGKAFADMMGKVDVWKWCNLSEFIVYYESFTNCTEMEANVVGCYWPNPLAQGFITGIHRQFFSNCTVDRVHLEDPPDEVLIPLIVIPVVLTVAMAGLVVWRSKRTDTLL

B1: N^ε1-[2-[2-[2-[[(4S)-4-carboxy-4-(19-carboxynonadecanoylamino)butanoyl]amino]ethoxy]ethoxy]acetyl]-[His14,Arg17,Pro21,Pro27,Arg34]-h-amylin (peptide)
peptide: K([AEEA-γGlu-C20 diacid])CNTATCATQRLAHFLRHSSPNFGAIPSSTNVGRNTY-NH2
modifications: disulfide 2-7; N-terminus assumed
SMILES: CC[C@H](C)[C@H](NC(=O)[C@H](C)NC(=O)CNC(=O)[C@H](Cc1ccccc1)NC(=O)[C@H](CC(N)=O)NC(=O)[C@@H]1CCCN1C(=O)[C@H](CO)NC(=O)[C@H](CO)NC(=O)[C@H](Cc1c[nH]cn1)NC(=O)[C@H](CCCNC(=N)N)NC(=O)[C@H](CC(C)C)NC(=O)[C@H](Cc1ccccc1)NC(=O)[C@H](Cc1c[nH]cn1)NC(=O)[C@H](C)NC(=O)[C@H](CC(C)C)NC(=O)[C@H](CCCNC(=N)N)NC(=O)[C@H](CCC(N)=O)NC(=O)[C@@H](NC(=O)[C@H](C)NC(=O)[C@@H]1CSSC[C@H](NC(=O)[C@@H](N)CCCCNC(=O)COCCOCCNC(=O)CC[C@H](NC(=O)CCCCCCCCCCCCCCCCCCC(=O)O)C(=O)O)C(=O)N[C@@H](CC(N)=O)C(=O)N[C@@H]([C@@H](C)O)C(=O)N[C@@H](C)C(=O)N[C@@H]([C@@H](C)O)C(=O)N1)[C@@H](C)O)C(=O)N1CCC[C@H]1C(=O)N[C@@H](CO)C(=O)N[C@@H](CO)C(=O)N[C@H](C(=O)N[C@@H](CC(N)=O)C(=O)N[C@H](C(=O)NCC(=O)N[C@@H](CCCNC(=N)N)C(=O)N[C@@H](CC(N)=O)C(=O)N[C@H](C(=O)N[C@@H](Cc1ccc(O)cc1)C(N)=O)[C@@H](C)O)C(C)C)[C@@H](C)O
notes: also called compound 84
Ratio hCT/hAmylin funct. [1]: 32.5
hCTR funct. EC50 [1]: 5490 pM
hAmylin-R funct. EC50 [2]: 169 pM

B3: N^ε1-[2-[2-[2-[[(4S)-4-carboxy-4-(19-carboxynonadecanoylamino)butanoyl]amino]ethoxy]ethoxy]acetyl]-[His14,Arg17,Pro21,Pro27,His34]-h-amylin (peptide)
peptide: K([AEEA-γGlu-C20 diacid])CNTATCATQRLAHFLRHSSPNFGAIPSSTNVGHNTY-NH2
modifications: disulfide 2-7; N-terminus assumed
SMILES: CC[C@H](C)[C@H](NC(=O)[C@H](C)NC(=O)CNC(=O)[C@H](Cc1ccccc1)NC(=O)[C@H](CC(N)=O)NC(=O)[C@@H]1CCCN1C(=O)[C@H](CO)NC(=O)[C@H](CO)NC(=O)[C@H](Cc1c[nH]cn1)NC(=O)[C@H](CCCNC(=N)N)NC(=O)[C@H](CC(C)C)NC(=O)[C@H](Cc1ccccc1)NC(=O)[C@H](Cc1c[nH]cn1)NC(=O)[C@H](C)NC(=O)[C@H](CC(C)C)NC(=O)[C@H](CCCNC(=N)N)NC(=O)[C@H](CCC(N)=O)NC(=O)[C@@H](NC(=O)[C@H](C)NC(=O)[C@@H]1CSSC[C@H](NC(=O)[C@@H](N)CCCCNC(=O)COCCOCCNC(=O)CC[C@H](NC(=O)CCCCCCCCCCCCCCCCCCC(=O)O)C(=O)O)C(=O)N[C@@H](CC(N)=O)C(=O)N[C@@H]([C@@H](C)O)C(=O)N[C@@H](C)C(=O)N[C@@H]([C@@H](C)O)C(=O)N1)[C@@H](C)O)C(=O)N1CCC[C@H]1C(=O)N[C@@H](CO)C(=O)N[C@@H](CO)C(=O)N[C@H](C(=O)N[C@@H](CC(N)=O)C(=O)N[C@H](C(=O)NCC(=O)N[C@@H](Cc1c[nH]cn1)C(=O)N[C@@H](CC(N)=O)C(=O)N[C@H](C(=O)N[C@@H](Cc1ccc(O)cc1)C(N)=O)[C@@H](C)O)C(C)C)[C@@H](C)O
notes: also called compound 80
Ratio hCT/hAmylin funct. [1]: 15.4
hCTR funct. EC50 [1]: 2140 pM
hAmylin-R funct. EC50 [2]: 139 pM

B4: N^ε1-[(4S)-4-carboxy-4-(13-carboxytridecanoylamino)butanoyl]-[Arg17,Pro21,Pro27,His34]-h-amylin (peptide)
peptide: K([γGlu-C14 diacid])CNTATCATQRLANFLRHSSPNFGAIPSSTNVGHNTY-NH2
modifications: disulfide 2-7; N-terminus assumed
SMILES: CC[C@H](C)[C@H](NC(=O)[C@H](C)NC(=O)CNC(=O)[C@H](Cc1ccccc1)NC(=O)[C@H](CC(N)=O)NC(=O)[C@@H]1CCCN1C(=O)[C@H](CO)NC(=O)[C@H](CO)NC(=O)[C@H](Cc1c[nH]cn1)NC(=O)[C@H](CCCNC(=N)N)NC(=O)[C@H](CC(C)C)NC(=O)[C@H](Cc1ccccc1)NC(=O)[C@H](CC(N)=O)NC(=O)[C@H](C)NC(=O)[C@H](CC(C)C)NC(=O)[C@H](CCCNC(=N)N)NC(=O)[C@H](CCC(N)=O)NC(=O)[C@@H](NC(=O)[C@H](C)NC(=O)[C@@H]1CSSC[C@H](NC(=O)[C@@H](N)CCCCNC(=O)CC[C@H](NC(=O)CCCCCCCCCCCCC(=O)O)C(=O)O)C(=O)N[C@@H](CC(N)=O)C(=O)N[C@@H]([C@@H](C)O)C(=O)N[C@@H](C)C(=O)N[C@@H]([C@@H](C)O)C(=O)N1)[C@@H](C)O)C(=O)N1CCC[C@H]1C(=O)N[C@@H](CO)C(=O)N[C@@H](CO)C(=O)N[C@H](C(=O)N[C@@H](CC(N)=O)C(=O)N[C@H](C(=O)NCC(=O)N[C@@H](Cc1c[nH]cn1)C(=O)N[C@@H](CC(N)=O)C(=O)N[C@H](C(=O)N[C@@H](Cc1ccc(O)cc1)C(N)=O)[C@@H](C)O)C(C)C)[C@@H](C)O
Ratio hCT/hAmylin funct. [1]: 38.8
hCTR funct. EC50 [1]: 1090 pM
hAmylin-R funct. EC50 [2]: 28 pM

Continued, values first:

Ratio hCT/hAmylin funct. [1]: 9.7
hCTR funct. EC50 [1]: 1140 pM
hAmylin-R funct. EC50 [2]: 118 pM
B2: N^ε1-[(4S)-4-carboxy-4-(19-carboxynonadecanoylamino)butanoyl]-[Ala14,Arg17,Pro21,Pro27,His34]-h-amylin (peptide)
peptide: K([γGlu-C20 diacid])CNTATCATQRLAAFLRHSSPNFGAIPSSTNVGHNTY-NH2
modifications: disulfide 2-7; N-terminus assumed
SMILES: CC[C@H](C)[C@H](NC(=O)[C@H](C)NC(=O)CNC(=O)[C@H](Cc1ccccc1)NC(=O)[C@H](CC(N)=O)NC(=O)[C@@H]1CCCN1C(=O)[C@H](CO)NC(=O)[C@H](CO)NC(=O)[C@H](Cc1c[nH]cn1)NC(=O)[C@H](CCCNC(=N)N)NC(=O)[C@H](CC(C)C)NC(=O)[C@H](Cc1ccccc1)NC(=O)[C@H](C)NC(=O)[C@H](C)NC(=O)[C@H](CC(C)C)NC(=O)[C@H](CCCNC(=N)N)NC(=O)[C@H](CCC(N)=O)NC(=O)[C@@H](NC(=O)[C@H](C)NC(=O)[C@@H]1CSSC[C@H](NC(=O)[C@@H](N)CCCCNC(=O)CC[C@H](NC(=O)CCCCCCCCCCCCCCCCCCC(=O)O)C(=O)O)C(=O)N[C@@H](CC(N)=O)C(=O)N[C@@H]([C@@H](C)O)C(=O)N[C@@H](C)C(=O)N[C@@H]([C@@H](C)O)C(=O)N1)[C@@H](C)O)C(=O)N1CCC[C@H]1C(=O)N[C@@H](CO)C(=O)N[C@@H](CO)C(=O)N[C@H](C(=O)N[C@@H](CC(N)=O)C(=O)N[C@H](C(=O)NCC(=O)N[C@@H](Cc1c[nH]cn1)C(=O)N[C@@H](CC(N)=O)C(=O)N[C@H](C(=O)N[C@@H](Cc1ccc(O)cc1)C(N)=O)[C@@H](C)O)C(C)C)[C@@H](C)O
notes: also called compound 93

Ratio hCT/hAmylin funct. [1]: 60.9
hCTR funct. EC50 [1]: 5850 pM
hAmylin-R funct. EC50 [2]: 96 pM
B5: N^ε1-[(4S)-4-carboxy-4-(17-carboxyheptadecanoylamino)butanoyl]-[Arg17,Pro21,Pro27,His34]-h-amylin (peptide)
peptide: K([γGlu-C18 diacid])CNTATCATQRLANFLRHSSPNFGAIPSSTNVGHNTY-NH2
modifications: disulfide 2-7; N-terminus assumed
SMILES: CC[C@H](C)[C@H](NC(=O)[C@H](C)NC(=O)CNC(=O)[C@H](Cc1ccccc1)NC(=O)[C@H](CC(N)=O)NC(=O)[C@@H]1CCCN1C(=O)[C@H](CO)NC(=O)[C@H](CO)NC(=O)[C@H](Cc1c[nH]cn1)NC(=O)[C@H](CCCNC(=N)N)NC(=O)[C@H](CC(C)C)NC(=O)[C@H](Cc1ccccc1)NC(=O)[C@H](CC(N)=O)NC(=O)[C@H](C)NC(=O)[C@H](CC(C)C)NC(=O)[C@H](CCCNC(=N)N)NC(=O)[C@H](CCC(N)=O)NC(=O)[C@@H](NC(=O)[C@H](C)NC(=O)[C@@H]1CSSC[C@H](NC(=O)[C@@H](N)CCCCNC(=O)CC[C@H](NC(=O)CCCCCCCCCCCCCCCCC(=O)O)C(=O)O)C(=O)N[C@@H](CC(N)=O)C(=O)N[C@@H]([C@@H](C)O)C(=O)N[C@@H](C)C(=O)N[C@@H]([C@@H](C)O)C(=O)N1)[C@@H](C)O)C(=O)N1CCC[C@H]1C(=O)N[C@@H](CO)C(=O)N[C@@H](CO)C(=O)N[C@H](C(=O)N[C@@H](CC(N)=O)C(=O)N[C@H](C(=O)NCC(=O)N[C@@H](Cc1c[nH]cn1)C(=O)N[C@@H](CC(N)=O)C(=O)N[C@H](C(=O)N[C@@H](Cc1ccc(O)cc1)C(N)=O)[C@@H](C)O)C(C)C)[C@@H](C)O

Ratio hCT/hAmylin funct. [1]: 65.1
hCTR funct. EC50 [1]: 2210 pM
hAmylin-R funct. EC50 [2]: 34 pM
B6: N^ε1-[(4S)-4-carboxy-4-(15-carboxypentadecanoylamino)butanoyl]-[Arg17,Pro21,Pro27,His34]-h-amylin (peptide)
peptide: K([γGlu-C16 diacid])CNTATCATQRLANFLRHSSPNFGAIPSSTNVGHNTY-NH2
modifications: disulfide 2-7; N-terminus assumed
SMILES: CC[C@H](C)[C@H](NC(=O)[C@H](C)NC(=O)CNC(=O)[C@H](Cc1ccccc1)NC(=O)[C@H](CC(N)=O)NC(=O)[C@@H]1CCCN1C(=O)[C@H](CO)NC(=O)[C@H](CO)NC(=O)[C@H](Cc1c[nH]cn1)NC(=O)[C@H](CCCNC(=N)N)NC(=O)[C@H](CC(C)C)NC(=O)[C@H](Cc1ccccc1)NC(=O)[C@H](CC(N)=O)NC(=O)[C@H](C)NC(=O)[C@H](CC(C)C)NC(=O)[C@H](CCCNC(=N)N)NC(=O)[C@H](CCC(N)=O)NC(=O)[C@@H](NC(=O)[C@H](C)NC(=O)[C@@H]1CSSC[C@H](NC(=O)[C@@H](N)CCCCNC(=O)CC[C@H](NC(=O)CCCCCCCCCCCCCCC(=O)O)C(=O)O)C(=O)N[C@@H](CC(N)=O)C(=O)N[C@@H]([C@@H](C)O)C(=O)N[C@@H](C)C(=O)N[C@@H]([C@@H](C)O)C(=O)N1)[C@@H](C)O)C(=O)N1CCC[C@H]1C(=O)N[C@@H](CO)C(=O)N[C@@H](CO)C(=O)N[C@H](C(=O)N[C@@H](CC(N)=O)C(=O)N[C@H](C(=O)NCC(=O)N[C@@H](Cc1c[nH]cn1)C(=O)N[C@@H](CC(N)=O)C(=O)N[C@H](C(=O)N[C@@H](Cc1ccc(O)cc1)C(N)=O)[C@@H](C)O)C(C)C)[C@@H](C)O
